According to the nanobody polyreactivity screen of Harvey et al. (2022):

Assay: yeast display, Sf9 membrane polyspecificity reagent, FACS + sequencing; frameworks hold sequencing errors
Outline: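 Polyreactivity labels are assigned by the sorting gate from which each nanobody was recovered. The gates were low and high (top ~1%), set on anti-HA fluorescence for expression and streptavidin fluorescence for reagent binding. Before sorting, galactose-induced (36–48 hours) yeast display cells were stained for 1 hour at 4 °C with 10% biotinylated, detergent-solubilized Sf9 membrane reagent.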

Sequence | polyreactivity (PSR sort gate)
QVQLVESGGGLVQAGGSLRLSCAASGFISRYAMGLYRQAPGKERELVAAINRSGGRTYYADSVKGRFTISRDNAKNTVYLQMNSLKPEDTAVYYCAAERSSSYTYDFWGQGTQVTVSS | high polyreactivity
QVQLVESGGGLVQAGGSLRLSCAASGRIFNGYAMGWYRQAPGKERELVAAISVSGGSTYYADSVKGRFTISRDNAKNTVYLQMNSLKPEDTAVYYCAARTSSYSFPYAYNYWGQGTQVTVSS | high polyreactivity
QHQHVESGGGLDQAGGSLRLSCAASGSTFQIYAMGWYRQAPGKERELVAAIDFSGGSTYYADSVKGRFTISRDNAKYTVYLQMNSLKQEDTAVYYCAADLALYSHFGEYEYWGQGTQVTVSS | low polyreactivity
QVQLVESGGGLVQAGGSLRLSCAASGRIFGYYAMGWYRQAPGKERELVAAITWGGGTTRYADSVKGRFTISRDNAKNTVYLQMNSLKPEDTAVYYCATALWVRYYGQGGYIRRYDYWGQGTQVTVSS | high polyreactivity
QVQLVESGGGLVQAGGSLRLSCAASGRIFDTNAMGWYRQAPGKERAFVAAISRSGGSTYYADSVKGRFTISRDNAKNTVYLQMNSLKPEDTAVYYCAARWYVLQPLGYDATHRKYYWGQGTQVTVSS | high polyreactivity
QVQLVESGGGLVQAGGSLRLSCAASGSIFYVYAMGWYRQAPGKERELVAAITSGGSTNYADSVKGRFTISRDNAKNTVYLQMNSLKPEDTAVYYCAAAWENIWVWQEYIEYDYWGQGTQVTVSS | low polyreactivity
QVQLVESGGGLVQAGGSLRLSCAASGFTFTHYAMGWYRQAPGKERELVAAITDTGGGTYYADSVKGRFTISRHNAKNTVYLQMNSLKPQDTAVYYCAKPTSYRGYYSWGQGTQVTVSS | high polyreactivity
QVQLVESGGGLVQGGGSLRLSCASSGSIFGWNAMGWYRPAPGKERELVAAISFSGSCTFYADSVKGRFTISRDNAKNTVYLQMNSLKPEDTAVYDCAAEPYSVYEYYYWGQGTQVTGSS | high polyreactivity
QVQLVESGGGLVQAGGSLRLSCAASGSIFGSYAMGWYRPAPGKERELVAAITIADITYYADSVKGRFTISRDNAKNTVYLQMNSLKPEDTAVYYCAAPYSPLWYPGGDYWRQGTQVTVSS | low polyreactivity
QVQLVESGGGLVQAGGSLRLSCAASGITFVSYTMGWYRQAPGTEREFVAAITWNVASTYYADSVKGRFTISRDNAKNTVYLQMNSLKPEDTAVYYCAAGYDWSVITIYDYWGQGTQVTVSS | high polyreactivity
QVQLEESGGGLDQAGGSLRLSCAASGSIFYYYAMGWYRQAPGKERELVAVIDFSGASTSYAVSVKGRFTISRDNAKITVYLQMNSLKPEDTAVYYCAADRRSKYDYWGQGTQVTVSS | low polyreactivity
QVQLVESGGGLVQAGGSLRLSCAASGRIFVYNAMGWYRQAPGKERELVASISWSGDSTYADSVKGRFTISRDNAKNTVYLQMNSLKPEDTAVYYCAAYSQADYQNMDYWGQGTQVTVSS | low polyreactivity
QVQLVDSGGGLVQAGGSLRLSCAASGLTILPNAMGWSRQAPGNDRELVAAISWGDGNTYYADSVKGRFTISRDNAKNTVYLQMNSLKPEDTAVYYCAADVIKSRTYDYWGQGTQVTVSS | low polyreactivity
QVQLVESGGGLVQAGGSLRLSCAASGRIFYLYAMGWYRQAPGKERELVAAISVSGARTYYADSVKGRFTISRDNAKNNVYLQMNSLKPEDTAVYYCATVGPYRSRRAGDYWGQGTQVTVSS | high polyreactivity
QVQLVESGGALVQAGGSLRLSCAASGFTFLIYAKGWYIQAPGKERELVAAITWRGSGTYYADCVKGRFTISRDNGQNTVYLQMNSLKPEDSAVYYCAARTARRTYDYWGQGTQVTVSS | low polyreactivity
QVQLVESGGGLVQARGSLRLSCAASGSIFAQYAMGWYRQAPGKERELVAAITRSTGRTYYADSVKGRFTISRDNANNTVYLQMNSLKPEDTSVYYGNARQRQSKYYPYTTFTYDYWGQGTQVTVSS | high polyreactivity
QVHLVESGGGLVQAGGSLRLSCAASGSIFGSYAMGWYRQAPGKERELVASITRVDSTNYADSVKGRFTISRDNAKNTVYLQMNSLKPEDTAVYYCNAGKTIDYRDGVGYDHWGQGTQVTVSS | low polyreactivity
QVQLVESGGGLVQAGGSLRLSCAASGSIFGWYAMGWYRQAPGKERELVAAIDSATSTYYADSVKGRFTISRDNAKNTVYLQMNSLKPEDTAFYYCAAVQLYQKHQITYVAHEYWGQGTQVTVSS | low polyreactivity
QVQLVESGGGLVQAGGSLRLSCAASGRISGVNAMGWYRQAPGKERELVATISGSGGRTYYADSVKGRFTISRDNAKNTVYLQMNSLKPEDTAVYYCNTLVQRGGYFSRRFDYWGQGTQVTVSS | low polyreactivity
QVQLVESGGGLVQAGGSLRLSCAASGITFSAYAMGWYRQAPGKERELVAAISWSGGNTYYADSVKGRFTISRDNAKNTVYLQMNSLKPEDTAVYYCAAEREAYNTWFDYWGQGTQVTVSS | high polyreactivity
QVQLVESGGGLVQAGGSLRLSCAASGSISVANAMGWYRQAPGKERELVAAITDSGDDTYYADSVKGRFTISRDNAKNTVYLQMNSLKPEDTAVYYCAVEAWSVPPYDYWGQGTQVTVSS | low polyreactivity
QVQLVESGGGVDQAGGSLRLSCAASGSIFDLNARGGYRQAPGTERELVASIRDSGGRTYYADSVKGRFTISRDNAKNTVYLQMNSLKPEDTALYYCAAKPRRPGRGYWGQGTQVTVSS | high polyreactivity

Sequence | polyreactivity (PSR sort gate)
QVQLVESGGGLVQARGSLRLSCAASGIIFSTYAMGWYRQAPGKERELVAAISASGVRTYYADSVKGRFTISRDNAKNTVYLQMNSLKPEDTAVYYCAVRGYPYLRYYWGQGTQVTVSS | high polyreactivity
QVEHLDSGGGLVQAGGILRLSCASSGIIFGYYAMGWYRQEPGKERELVAGITYRTGSTYYADSVKGRFTISRDNAKNTVYLQMNSLKPEDTEVYFCAATQYTRNYSSWYYYWGQGTQVTVSS | high polyreactivity
QVQLVDSGGGLVQAGGSLRLSCAASGFIFRYYAMGWNRQATGKERELVAAISWSTDNTYYADSVKGRFTILRDNAKNTVYLQMNSLKPEDTAVYYCAADEGWYGPKLDYWGQGTQVTVSS | low polyreactivity
QVHLVESGGGLVHAGGSIRLSCAASGSIFGYYAMGWYRQAPGKEREFVAAITWNGGSTYYADSVKGRFTISRDNAKNTVYLEMISLKPEDTAVYYCARTSYARFRNGWTYDHWGQGTQVSVSS | low polyreactivity
QVQRVESGGGLVQAGGSLRLSCAASGSTFSIYAMGLYRQEPGKERELVAAISFSDDSTYYADSVKGRFTISRDNAKNTVYLQMNSLNPEDTEVYYCAAEGYWGEPFDYDGALEYWGQGTQVTVSS | high polyreactivity
QVQLVESGGGLVQAGGSLRLSCAASGRIFHGYAMGWYRQAPGKERDLDAAISWRGDSTYYADSVKGRFTISRDNAKNTVYLQINSLKPEDTAVYYCAAASRSWRDDYWGQCTQVTVSS | low polyreactivity
QVQLVESGGGLVQAGGSLRLSCAASGIIFEGNAMGWYRQAPGKERELVAAISTSTGRTYYADSVKGRFTISRDNAKNTVYLQMNSLKPEDTAVYYCAAYIRTTRFDYWGQGTQVTVSS | high polyreactivity
QVQLVESGAGLVQAGGSLRLSCAASGFIFARYAMGWSRQAPGKERELVAAITRGGGSTYYADSVKGRFTISRDTAKNTVYLQMNSLKPEDTAVYYCAAENGALVTYGYWGQGTQVTVSS | high polyreactivity
QVQLVESGGGLVQAGGSLRLSCAASGSIFTWYAMGWYRQAPGKERELVAAITRGGSTYADSVKGRFTISRDNAKYTVYLQMNSLKPEDTAVYYCNAVYGVYDFNYWGQGTQVTVSS | low polyreactivity
QVQLVESGGGLVQAGGSLRLICAASGSTFEAYAMGWYRQAPGKDSELVAAIRSSGSTSYADSVKGRFTISRDNAKNTVYLQMKSLKPEDTALYYGAARVRGYPRYKRDYWGQGTQVTVSS | high polyreactivity
QVQLVESGGGLVQAGGSIRLSCAASGSIVVSYAMGWYRQAPGKERELVAAITVSGGSTYYADSVKGRFTISRDNAKNTVYLQMNSLKPEDTAVYYCAADSWDDWVVEFYYWGQGTQVNVSS | low polyreactivity
QVQLVESGGGLVQAGGSLRLICAASGFTFEYYAMGWYRQAPGKERELVAAISGSGVSTYYADSVKGRFTISRDNAKNTVYLQMNSLNPEDTAVYYCAALGDKYGSNRLDHYWYIWYDSWGQGTQVTVSS | low polyreactivity
QVQLVESGGGLVQAGGSLRLSCAASGRTLSYYAMGWYRQAPGKEREFVAAITGSGGSTYYADSVKGRFTISRDNAKNNVYLQMNSLKPEDTAVYYCNATGLGVFTVEYYYWGQGTQVTVSS | low polyreactivity
QDQLVESRGGLVQAGGSLRVSCAASGLSFGYYAMGWYRQATGKERELVAAISSSGVNTYYADSVKGRFTISRDNPKNTVYLQMNSLIPEDTAVYYCNTVPKPWYSWKYAYDYWGQGTQVTVSS | high polyreactivity
QVQLVESGGGLVQAGGSLRLSCAASGSTFNGYAMGWYRQAPGKERELVAAINWTGDSTYYADSVKGRFTISRDNAKNTVYLQMNSLKPEDTAVYYCAAIRRQKGLWDYYYWGQGTQVTVSS | low polyreactivity
QVQLVESGGGLVQAGGSLRLSCAASGRTFGYNAMGWYRQAPGKEREFVAAITWSGGRTYYADSVKGRFTISRDNAKNTVYLQMISLKPEDTAVYYCAAVLGRPLHGVAYGYWGQGTQVTVSS | low polyreactivity
QVQLVESGGGLVQAGGSLRLSCAATGRTFRIYAMGWYRQAPGKEREFVAAITWSGGRTYYADSVKGRFTISRDNAKNTVYLQMNSLKPEDTAVYYCAADPTYLRTLRFGSYDYWGQGTQVTVSS | high polyreactivity
QVQLVESGGGLVHAGGSLRLSCAASGSTFYSNTMGWYRQAPGKERELVAAIDTSGDSTNYADSVKGRFTISRDNAKNTVYLQMNSLKPEDTAVYYCNRRVSDRAFPFNYWGQGTQVTVSS | low polyreactivity
QVQLVESGGGLVQAGGSLRLSCAASGSIQVYYAMGWYRQAPGKERELVAAISSGGSTNYADSVKGRFTISRDNAKNTVYLQMNSLKPEDTAVYYCAKESGWVGAIHYDYWGQGTQVTVSS | low polyreactivity
QVQLVESGGGLVQAGGSLRLSCAASGIIFKGYDMGWYRQAPGKERELVAAISSGSTNYADSVKGRFTISRDNAKNTVYLQMNSLKPEDTAVYYCAVRTYRYQSWGNYYLEYDYWGQGTQVTVSS | low polyreactivity
QVQLVESGGGLVQAGGSLRLCCAASGSTFGWNAMRSYRQAPGNERELVAAISSSGGITYYADSVKGRFPISRDNAKNTVYLQMNSLKPEDTAVYYCAAERDDDWFNYWGQGTQVTVSS | low polyreactivity
